For the assay, the target named is DPP9, short isoform (DPP9S), co-expressed with CARD8 for cryo-EM (UniProt Q86TI2-1 1-863). The experiment in a line: cryo-EM structure.
Sequence of DPP9, short isoform (DPP9S), co-expressed with CARD8 for cryo-EM (Q86TI2 whole entry, canonical isoform): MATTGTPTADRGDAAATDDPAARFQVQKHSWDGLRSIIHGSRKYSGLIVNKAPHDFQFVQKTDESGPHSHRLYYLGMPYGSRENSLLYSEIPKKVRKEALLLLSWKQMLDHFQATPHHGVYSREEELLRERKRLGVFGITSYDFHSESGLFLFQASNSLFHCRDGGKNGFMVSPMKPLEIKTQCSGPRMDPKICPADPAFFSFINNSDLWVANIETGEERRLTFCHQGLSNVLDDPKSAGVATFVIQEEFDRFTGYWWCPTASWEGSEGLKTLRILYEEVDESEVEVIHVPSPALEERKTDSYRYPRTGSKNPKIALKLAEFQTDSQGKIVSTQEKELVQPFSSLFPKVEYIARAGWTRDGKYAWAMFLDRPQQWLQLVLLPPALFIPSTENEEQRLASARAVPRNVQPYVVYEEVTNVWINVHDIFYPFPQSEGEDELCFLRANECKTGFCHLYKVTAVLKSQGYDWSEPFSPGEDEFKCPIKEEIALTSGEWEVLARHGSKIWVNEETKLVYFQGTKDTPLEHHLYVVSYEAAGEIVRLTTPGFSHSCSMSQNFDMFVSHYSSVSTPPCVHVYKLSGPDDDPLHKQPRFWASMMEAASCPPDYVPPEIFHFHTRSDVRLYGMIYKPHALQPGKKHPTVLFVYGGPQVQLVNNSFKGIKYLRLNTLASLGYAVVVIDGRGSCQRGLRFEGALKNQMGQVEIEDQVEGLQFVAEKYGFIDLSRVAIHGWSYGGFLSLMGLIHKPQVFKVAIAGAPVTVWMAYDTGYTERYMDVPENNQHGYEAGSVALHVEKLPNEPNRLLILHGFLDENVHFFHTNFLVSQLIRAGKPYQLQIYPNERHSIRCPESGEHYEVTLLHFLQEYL

B1: Full-length CARD8 (T60 isoform), molecule A of the CARD8-DPP9 ternary complex (natural protein, human, UniProt Q9Y2G2-5 1-537, looked up)
chain: MEKKECPEKSSSSEEELPRRDSGSSRNIDASKLIRLQGSRKLLVDNSIRELQYTKTGIFFQAEACVTNDTVYRELPCVSETLCDISHFFQEDDETEAEPLLFRAVPECQLSGGDIPSVSEEQESSEGQDSGDICSEENQIVSSYASKVCFEIEEDYKNRQFLGPEGNVDVELIDKSTNRYSVWFPTAGWYLWSATGLGFLVRDEVTVTIAFGSWSQHLALDLQHHEQWLVGGPLFDVTAEPEEAVAEIHLPHFISLQAGEVDVSWFLVAHFKNEGMVLEHPARVEPFYAVLESPSFSLMGILLRIASGTRLSIPITSNTLIYYHPHPEDIKFHLYLVPSDALLTKAIDDEEDRFHGVRLQTSPPMEPLNFGSSYIVSNSANLKVMPKELKLSYRSPGEIQHFSKFYAGQMKEPIQLEITEKRHGTLVWDTEVKPVDLQLVAASAPPPFSGAAFVKENHRQLQARMGDLKGVLDDLQDNEVLTENEKELVEQEKTRQSKNEALLSMVEKKGDLALDVLFRSISERDPYLVSYLRQQNL
For B1, the binding result is on record as “binds”.

B2: CARD8-S297A (autoproteolytic-deficient), full length, for cryo-EM (natural protein, human, UniProt Q9Y2G2-5 1-537, looked up)
chain: MEKKECPEKSSSSEEELPRRDSGSSRNIDASKLIRLQGSRKLLVDNSIRELQYTKTGIFFQAEACVTNDTVYRELPCVSETLCDISHFFQEDDETEAEPLLFRAVPECQLSGGDIPSVSEEQESSEGQDSGDICSEENQIVSSYASKVCFEIEEDYKNRQFLGPEGNVDVELIDKSTNRYSVWFPTAGWYLWSATGLGFLVRDEVTVTIAFGSWSQHLALDLQHHEQWLVGGPLFDVTAEPEEAVAEIHLPHFISLQAGEVDVSWFLVAHFKNEGMVLEHPARVEPFYAVLESPSFALMGILLRIASGTRLSIPITSNTLIYYHPHPEDIKFHLYLVPSDALLTKAIDDEEDRFHGVRLQTSPPMEPLNFGSSYIVSNSANLKVMPKELKLSYRSPGEIQHFSKFYAGQMKEPIQLEITEKRHGTLVWDTEVKPVDLQLVAASAPPPFSGAAFVKENHRQLQARMGDLKGVLDDLQDNEVLTENEKELVEQEKTRQSKNEALLSMVEKKGDLALDVLFRSISERDPYLVSYLRQQNL
On to B2, for which the binding result is given as “binds”.

These data come from article PMC8423358 (Immunity, 2021).
